Results on one substance are retold here after patent US20210123065.

The subject of the series is Che9c RecT annealase (Mycobacteriophage Che9c). In words: cell_activity. Conditions: oligo recombineering, about 1 ug oligo, M. smegmatis.

Turning to “180-mer hyg oligo carrying 60 base insertion”, the activity (recombinants per survivor) worked out at 2e-06.
